Results from patent US10919943B2, “Mutant proteins enabling agrochemical control of plant gene expression” (The Regents of the University of California, priority 2016, dated 2021).

Each molecule was assayed on HAB1 (assay: Yeast two hybrid of pBD-PYR1 site saturation mutants with pACT-HAB1 on 10 μM ABA, β-galactosidase staining). Settings: S. cerevisiae Y190, 10 μM ABA; dead = lack of visible staining in comparison to wild type control.
Assay type: cell-based, Arabidopsis
Set-up: key: x: Mutations in PYR1 that disrupt ABA-induced binding to PYR1 to HAB1
Method in brief: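 S. cerevisiae Y190 co-expressing GAL4-DNA-binding-domain–PYR1 mutants and GAL4-activation-domain–HAB1 were spotted on SD (-Leu, -Trp) agar with 10 μM (+)-ABA for 2 days at 30° C. Colonies were chloroform-lysed and stained for β-galactosidase. Mutants lacking visible staining relative to wild type were scored as non-binding.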

Mutations in PYR1 that disrupt ABA-induced binding to PYR1 to HAB1 | Molecule
x | F159P: PYR1 mutant (protein, UniProt O49686 1-191, looked up, variant F159P) Abscisic acid receptor PYR1: MPSELTPEERSELKNSIAEFHTYQLDPGSCSSLHAQRIHAPPELVWSIVRRFDKPQTYKHFIKSCSVEQNFEMRVGCTRDVIVISGLPANTSTERLDILDDERRVTGFSIIGGEHRLTNYKSVTTVHRFEKENRIWTVVLESYVVDMPEGNSEDDTRMPADTVVKLNLQKLATVAEAMARNSGDGSGSQVT
x | F159D: PYR1 mutant (protein, UniProt O49686 1-191, looked up, variant F159D) Abscisic acid receptor PYR1: MPSELTPEERSELKNSIAEFHTYQLDPGSCSSLHAQRIHAPPELVWSIVRRFDKPQTYKHFIKSCSVEQNFEMRVGCTRDVIVISGLPANTSTERLDILDDERRVTGFSIIGGEHRLTNYKSVTTVHRFEKENRIWTVVLESYVVDMPEGNSEDDTRMDADTVVKLNLQKLATVAEAMARNSGDGSGSQVT
x | F61S: PYR1 mutant (protein, UniProt O49686 1-191, looked up, variant F61S) Abscisic acid receptor PYR1: MPSELTPEERSELKNSIAEFHTYQLDPGSCSSLHAQRIHAPPELVWSIVRRFDKPQTYKHSIKSCSVEQNFEMRVGCTRDVIVISGLPANTSTERLDILDDERRVTGFSIIGGEHRLTNYKSVTTVHRFEKENRIWTVVLESYVVDMPEGNSEDDTRMFADTVVKLNLQKLATVAEAMARNSGDGSGSQVT
x | T162F: PYR1 mutant (protein, UniProt O49686 1-191, looked up, variant T162F) Abscisic acid receptor PYR1: MPSELTPEERSELKNSIAEFHTYQLDPGSCSSLHAQRIHAPPELVWSIVRRFDKPQTYKHFIKSCSVEQNFEMRVGCTRDVIVISGLPANTSTERLDILDDERRVTGFSIIGGEHRLTNYKSVTTVHRFEKENRIWTVVLESYVVDMPEGNSEDDTRMFADFVVKLNLQKLATVAEAMARNSGDGSGSQVT
x | F159K: PYR1 mutant (protein, UniProt O49686 1-191, looked up, variant F159K) Abscisic acid receptor PYR1: MPSELTPEERSELKNSIAEFHTYQLDPGSCSSLHAQRIHAPPELVWSIVRRFDKPQTYKHFIKSCSVEQNFEMRVGCTRDVIVISGLPANTSTERLDILDDERRVTGFSIIGGEHRLTNYKSVTTVHRFEKENRIWTVVLESYVVDMPEGNSEDDTRMKADTVVKLNLQKLATVAEAMARNSGDGSGSQVT
x | F159W: PYR1 mutant (protein, UniProt O49686 1-191, looked up, variant F159W) Abscisic acid receptor PYR1: MPSELTPEERSELKNSIAEFHTYQLDPGSCSSLHAQRIHAPPELVWSIVRRFDKPQTYKHFIKSCSVEQNFEMRVGCTRDVIVISGLPANTSTERLDILDDERRVTGFSIIGGEHRLTNYKSVTTVHRFEKENRIWTVVLESYVVDMPEGNSEDDTRMWADTVVKLNLQKLATVAEAMARNSGDGSGSQVT
x | F159G: PYR1 mutant (protein, UniProt O49686 1-191, looked up, variant F159G) Abscisic acid receptor PYR1: MPSELTPEERSELKNSIAEFHTYQLDPGSCSSLHAQRIHAPPELVWSIVRRFDKPQTYKHFIKSCSVEQNFEMRVGCTRDVIVISGLPANTSTERLDILDDERRVTGFSIIGGEHRLTNYKSVTTVHRFEKENRIWTVVLESYVVDMPEGNSEDDTRMGADTVVKLNLQKLATVAEAMARNSGDGSGSQVT
x | F61D: PYR1 mutant (protein, UniProt O49686 1-191, looked up, variant F61D) Abscisic acid receptor PYR1: MPSELTPEERSELKNSIAEFHTYQLDPGSCSSLHAQRIHAPPELVWSIVRRFDKPQTYKHDIKSCSVEQNFEMRVGCTRDVIVISGLPANTSTERLDILDDERRVTGFSIIGGEHRLTNYKSVTTVHRFEKENRIWTVVLESYVVDMPEGNSEDDTRMFADTVVKLNLQKLATVAEAMARNSGDGSGSQVT
x | F159Q: PYR1 mutant (protein, UniProt O49686 1-191, looked up, variant F159Q) Abscisic acid receptor PYR1: MPSELTPEERSELKNSIAEFHTYQLDPGSCSSLHAQRIHAPPELVWSIVRRFDKPQTYKHFIKSCSVEQNFEMRVGCTRDVIVISGLPANTSTERLDILDDERRVTGFSIIGGEHRLTNYKSVTTVHRFEKENRIWTVVLESYVVDMPEGNSEDDTRMQADTVVKLNLQKLATVAEAMARNSGDGSGSQVT
x | F159Y: PYR1 mutant (protein, UniProt O49686 1-191, looked up, variant F159Y) Abscisic acid receptor PYR1: MPSELTPEERSELKNSIAEFHTYQLDPGSCSSLHAQRIHAPPELVWSIVRRFDKPQTYKHFIKSCSVEQNFEMRVGCTRDVIVISGLPANTSTERLDILDDERRVTGFSIIGGEHRLTNYKSVTTVHRFEKENRIWTVVLESYVVDMPEGNSEDDTRMYADTVVKLNLQKLATVAEAMARNSGDGSGSQVT
x | K170P: PYR1 mutant (protein, UniProt O49686 1-191, looked up, variant K170P) Abscisic acid receptor PYR1: MPSELTPEERSELKNSIAEFHTYQLDPGSCSSLHAQRIHAPPELVWSIVRRFDKPQTYKHFIKSCSVEQNFEMRVGCTRDVIVISGLPANTSTERLDILDDERRVTGFSIIGGEHRLTNYKSVTTVHRFEKENRIWTVVLESYVVDMPEGNSEDDTRMFADTVVKLNLQPLATVAEAMARNSGDGSGSQVT
x | F61P: PYR1 mutant (protein, UniProt O49686 1-191, looked up, variant F61P) Abscisic acid receptor PYR1: MPSELTPEERSELKNSIAEFHTYQLDPGSCSSLHAQRIHAPPELVWSIVRRFDKPQTYKHPIKSCSVEQNFEMRVGCTRDVIVISGLPANTSTERLDILDDERRVTGFSIIGGEHRLTNYKSVTTVHRFEKENRIWTVVLESYVVDMPEGNSEDDTRMFADTVVKLNLQKLATVAEAMARNSGDGSGSQVT
x | F61R: PYR1 mutant (protein, UniProt O49686 1-191, looked up, variant F61R) Abscisic acid receptor PYR1: MPSELTPEERSELKNSIAEFHTYQLDPGSCSSLHAQRIHAPPELVWSIVRRFDKPQTYKHRIKSCSVEQNFEMRVGCTRDVIVISGLPANTSTERLDILDDERRVTGFSIIGGEHRLTNYKSVTTVHRFEKENRIWTVVLESYVVDMPEGNSEDDTRMFADTVVKLNLQKLATVAEAMARNSGDGSGSQVT
x | F159S: PYR1 mutant (protein, UniProt O49686 1-191, looked up, variant F159S) Abscisic acid receptor PYR1: MPSELTPEERSELKNSIAEFHTYQLDPGSCSSLHAQRIHAPPELVWSIVRRFDKPQTYKHFIKSCSVEQNFEMRVGCTRDVIVISGLPANTSTERLDILDDERRVTGFSIIGGEHRLTNYKSVTTVHRFEKENRIWTVVLESYVVDMPEGNSEDDTRMSADTVVKLNLQKLATVAEAMARNSGDGSGSQVT
x | F61N: PYR1 mutant (protein, UniProt O49686 1-191, looked up, variant F61N) Abscisic acid receptor PYR1: MPSELTPEERSELKNSIAEFHTYQLDPGSCSSLHAQRIHAPPELVWSIVRRFDKPQTYKHNIKSCSVEQNFEMRVGCTRDVIVISGLPANTSTERLDILDDERRVTGFSIIGGEHRLTNYKSVTTVHRFEKENRIWTVVLESYVVDMPEGNSEDDTRMFADTVVKLNLQKLATVAEAMARNSGDGSGSQVT
x | F159E: PYR1 mutant (protein, UniProt O49686 1-191, looked up, variant F159E) Abscisic acid receptor PYR1: MPSELTPEERSELKNSIAEFHTYQLDPGSCSSLHAQRIHAPPELVWSIVRRFDKPQTYKHFIKSCSVEQNFEMRVGCTRDVIVISGLPANTSTERLDILDDERRVTGFSIIGGEHRLTNYKSVTTVHRFEKENRIWTVVLESYVVDMPEGNSEDDTRMEADTVVKLNLQKLATVAEAMARNSGDGSGSQVT
x | T162E: PYR1 mutant (protein, UniProt O49686 1-191, looked up, variant T162E) Abscisic acid receptor PYR1: MPSELTPEERSELKNSIAEFHTYQLDPGSCSSLHAQRIHAPPELVWSIVRRFDKPQTYKHFIKSCSVEQNFEMRVGCTRDVIVISGLPANTSTERLDILDDERRVTGFSIIGGEHRLTNYKSVTTVHRFEKENRIWTVVLESYVVDMPEGNSEDDTRMFADEVVKLNLQKLATVAEAMARNSGDGSGSQVT
x | F159R: PYR1 mutant (protein, UniProt O49686 1-191, looked up, variant F159R) Abscisic acid receptor PYR1: MPSELTPEERSELKNSIAEFHTYQLDPGSCSSLHAQRIHAPPELVWSIVRRFDKPQTYKHFIKSCSVEQNFEMRVGCTRDVIVISGLPANTSTERLDILDDERRVTGFSIIGGEHRLTNYKSVTTVHRFEKENRIWTVVLESYVVDMPEGNSEDDTRMRADTVVKLNLQKLATVAEAMARNSGDGSGSQVT
x | F159H: PYR1 mutant (protein, UniProt O49686 1-191, looked up, variant F159H) Abscisic acid receptor PYR1: MPSELTPEERSELKNSIAEFHTYQLDPGSCSSLHAQRIHAPPELVWSIVRRFDKPQTYKHFIKSCSVEQNFEMRVGCTRDVIVISGLPANTSTERLDILDDERRVTGFSIIGGEHRLTNYKSVTTVHRFEKENRIWTVVLESYVVDMPEGNSEDDTRMHADTVVKLNLQKLATVAEAMARNSGDGSGSQVT
x | F61Q: PYR1 mutant (protein, UniProt O49686 1-191, looked up, variant F61Q) Abscisic acid receptor PYR1: MPSELTPEERSELKNSIAEFHTYQLDPGSCSSLHAQRIHAPPELVWSIVRRFDKPQTYKHQIKSCSVEQNFEMRVGCTRDVIVISGLPANTSTERLDILDDERRVTGFSIIGGEHRLTNYKSVTTVHRFEKENRIWTVVLESYVVDMPEGNSEDDTRMFADTVVKLNLQKLATVAEAMARNSGDGSGSQVT
x | T162P: PYR1 mutant (protein, UniProt O49686 1-191, looked up, variant T162P) Abscisic acid receptor PYR1: MPSELTPEERSELKNSIAEFHTYQLDPGSCSSLHAQRIHAPPELVWSIVRRFDKPQTYKHFIKSCSVEQNFEMRVGCTRDVIVISGLPANTSTERLDILDDERRVTGFSIIGGEHRLTNYKSVTTVHRFEKENRIWTVVLESYVVDMPEGNSEDDTRMFADPVVKLNLQKLATVAEAMARNSGDGSGSQVT
